Numbering of substitutions follows the chain as printed. Names may count otherwise.
Assays:
[1] = test system: periplasmic domain of RseA; assay: Cleavage of 35S-labeled RseA periplasmic domain by DegS variants; format: biochemical, E. coli; conditions: for YYF-stimulated cleavage activity relative to H198P parental enzyme: % of H198P parent
DegS = conditions: substrate-saturated; ref Sohn and Sauer, 2009; cited from earlier work
[2] = WT background, compared to wild-type DegS
[3] = H198P background, compared to H198P

B1: I179A: DegS variant I179A (protein)
chain: RSLNPLSTPQFDSTDETPASYNLAVRRAAPAVVNVYNRGLNTNSHNQLEIRTLGSGVIMDQRGYIITNKHVINDADQIIVALQDGRVFEALLVGSDSLTDLAVLKINATGGLPTIPINARRVPHIGDVVLAIGNPYNLGQTITQGIISATGRAGLNPTGRQNFLQTDASINHGNSGGALVNSLGELMGINTLSFDKSNDGETPEGIGFAIPFQLATKIMDKLIRDGRVIRGYIGIGGREIAPLHAQGGGIDQLQGIVVNEVSPDGPAANAGIQVNDLIISVDNKPAISALETMDQVAEIRPGSVIPVVVMRDDKQLTLQVTIQEYPATN
modifications: left off: His6, N-terminal, state not stated
YYF-stimulated cleavage activity, in words [1, 2]: reduced YYF-stimulated cleavage activity compared to wild-type DegS

B2: WT DegS: Wild-type E. coli DegS (residues 27–355) with N-terminal His6 tag replacing the membrane anchor (protein)
chain: B1 chain with A153I
modifications: left off: His6, N-terminal, state not stated
DegS in the active conformation (DegS): ~ 0.3%

B3: P229A: DegS variant P229A (protein)
chain: B1 chain with A153I, P203A
modifications: left off: His6, N-terminal, state not stated
YYF-stimulated cleavage activity, in words [1, 2]: more active than wild-type DegS

B4: D221A: DegS variant D221A (protein)
chain: B1 chain with A153I, D195A
modifications: left off: His6, N-terminal, state not stated
YYF-stimulated cleavage activity, in words [1, 2]: reduced YYF-stimulated cleavage activity compared to wild-type DegS

B5: Q187A: DegS variant Q187A (protein)
chain: B1 chain with A153I, Q161A
modifications: left off: His6, N-terminal, state not stated
YYF-stimulated cleavage activity, in words [1, 2]: reduced YYF-stimulated cleavage activity compared to wild-type DegS

B6: E230A: DegS variant E230A (protein)
chain: B1 chain with A153I, E204A
modifications: left off: His6, N-terminal, state not stated
YYF-stimulated cleavage activity relative to wild type ([1]; WT background, with YYF, % of wild-type activity): ~ 10%

B7: I179A/H198P (protein, UniProt P0AEE3 1-355, looked up, variant I179A H198P)
Serine endoprotease DegS: MFVKLLRSVAIGLIVGAILLVAMPSLRSLNPLSTPQFDSTDETPASYNLAVRRAAPAVVNVYNRGLNTNSHNQLEIRTLGSGVIMDQRGYIITNKHVINDADQIIVALQDGRVFEALLVGSDSLTDLAVLKINATGGLPTIPINARRVPHIGDVVLAIGNPYNLGQTITQGIISATGRAGLNPTGRQNFLQTDASINPGNSGGALVNSLGELMGINTLSFDKSNDGETPEGIGFAIPFQLATKIMDKLIRDGRVIRGYIGIGGREIAPLHAQGGGIDQLQGIVVNEVSPDGPAANAGIQVNDLIISVDNKPAISALETMDQVAEIRPGSVIPVVVMRDDKQLTLQVTIQEYPATN
YYF-stimulated cleavage activity relative to H198P parental enzyme ([1]; H198P background, with YYF): ≥ 65%

B8: H198P/P229A (protein, UniProt P0AEE3 1-355, looked up, variant H198P P229A)
Serine endoprotease DegS: B7 Serine endoprotease DegS with A179I, P229A
YYF-stimulated cleavage activity, in words [1, 3]: more active than H198P

B9: H198P/E230A (protein, UniProt P0AEE3 1-355, looked up, variant H198P E230A)
Serine endoprotease DegS: B7 Serine endoprotease DegS with A179I, E230A
YYF-stimulated cleavage activity, in words [1, 3]: activity within error of H198P

B10: Q187A/H198P (protein, UniProt P0AEE3 1-355, looked up, variant Q187A H198P)
Serine endoprotease DegS: B7 Serine endoprotease DegS with A179I, Q187A
YYF-stimulated cleavage activity relative to H198P parental enzyme ([1]; H198P background, with YYF): ≥ 65%

B11: D221A/H198P (protein, UniProt P0AEE3 1-355, looked up, variant D221A H198P)
Serine endoprotease DegS: B7 Serine endoprotease DegS with A179I, D221A
YYF-stimulated cleavage activity relative to H198P parental enzyme ([1]; H198P background, with YYF): ≥ 65%

From PMC4351158 (Structure (London, England : 1993), 2015)
